Target: CD33 (UniProt P20138)
Test: flow cytometry, hybridoma supernatant on EL4-CD33 cells, rat anti-mouse IgG APC

Chain of UniProt P20138 (P20138 18-364 limits assumed): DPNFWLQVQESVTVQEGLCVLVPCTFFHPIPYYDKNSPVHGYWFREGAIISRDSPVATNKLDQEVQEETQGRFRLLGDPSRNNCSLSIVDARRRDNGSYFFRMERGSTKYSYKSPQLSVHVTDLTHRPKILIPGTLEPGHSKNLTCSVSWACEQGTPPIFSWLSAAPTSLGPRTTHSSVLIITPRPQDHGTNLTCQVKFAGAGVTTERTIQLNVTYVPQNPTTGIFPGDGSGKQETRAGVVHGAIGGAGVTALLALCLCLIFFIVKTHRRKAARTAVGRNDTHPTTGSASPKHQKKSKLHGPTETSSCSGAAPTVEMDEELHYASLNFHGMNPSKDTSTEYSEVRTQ

B1: 3F5 (antibody, V domains shown)
VH: EVQLQQSGPELVKPGSSVKISCKASGYTFTDYNMDWVKQSHGKSLEWIGTINPNNGGTSYNQKFKGKATLTVDKSSSTAYMELRSLTSEDSAVYYCARKGYGGNYDYFDYWGQGTTLTVSS
VL: DILLTQSPAILSVSPGERVSFSCRASQSIGTSIHWYQQRTNGSPRLLIKYASESISGIPSRFSGSGSGTDFTLSINSVESEDIADYYCQQSNSWPYTFGGGTKLEIK
CD33/APC+: 52%
